According to the supplement of paper PMC9170038:

System: MS2 coat protein
Assay: apparent KD of MS2 coat protein; designed switch direction (-1 OFF switch, 1 ON switch): -1; higher = weaker reporter binding
Method in brief: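 Stalled E. coli RNA polymerase transcribed designed RNA switches on Illumina chips, which were then titrated with SNAP-549-labelled MS2 coat protein, doubling from 0.7 or 1.5 nM to 3 µM. Steps lasted from 0.8–1.5 h at the lowest concentration to 10–20 min at the highest. The apparent KD is each design's median over clusters of curve-fitted normalised fluorescence.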

[1] = Eterna round: R95, input ligand: FMN 200 uM
[2] = Eterna round: R95, input ligand: microRNA oligo, concentration not stated
[3] = Eterna round: R95, input ligand: none

| Sequence | apparent KD of MS2 coat protein [1] [nM] | apparent KD of MS2 coat protein [2] [nM] | apparent KD of MS2 coat protein [3] [nM] | apparent KD of MS2 coat protein (input ligand: FMN 200 uM) [nM] | apparent KD of MS2 coat protein (input ligand: none) [nM] | apparent KD of MS2 coat protein (input ligand: microRNA oligo, concentration not stated) [nM] |
| --- | --- | --- | --- | --- | --- | --- |
| GAGAAACAUGAGGAUCACCCAUGUGAGGAUAUGAAAAAGAAAAGAAAAGAAAGAAGAAUCAGAAGGCACAAAGU [salish99-ex1_r3_088] (puzzle: Exclusion 1) | 31.8 | 29.7 | 32.9 | – | – | – |
| GAGAAAGCAAACAGGUGAAACAUGAGGAUCACCCAUGUCCUCAUUUGCUCGUCUUAUAAGCUAUGCGAAAGCAUAGC [Mat - Sensor v3 - turn-off var 1 - Eli Mod - D54] (puzzle: Sensor v3, turn-off variant 1) | 63.5 | 642 | 58.7 | – | – | – |
| GAGAACGUAGGAUAUACAUGAGGAUCACCCAUGUGAGGAAGGAGUAGGAAGAGUGGAAGUAGAAGGACGAAGAG [JR_Exclu3_Sub071] (puzzle: Exclusion 3) | 29.3 | 36.3 | 43.8 | – | – | – |
| GAGAAGGUAGGAUAUACGAAAAAAAAGGGUAGAAAAAAAACACAUGAGGAUCACCCAUGUAGAAGGACCAAAAG [salish99_ex2_r3_035] (puzzle: Exclusion 2) | 68.9 | 24.6 | 28 | – | – | – |
| GAGAAGGUAGGAUAUACGAAGAAAAAGGGUAGAAUAAGAACACAUGAGGAUCACCCAUGUAGAAGGACCAAGAG [Mat - Exclusion 2 - Mod of my Tesla design - D18] (puzzle: Exclusion 2) | 37.1 | 18.6 | 14.7 | – | – | – |
| GAGAAGGUAGGAUAUACGAAGAAAGAGGGUAGGAAUAAUACACAUGAGGAUCACCCAUGUAGAAGGACCAAGAG [Mat - Exclusion 2 - Mod of my Tesla design - D46] (puzzle: Exclusion 2) | 38.7 | 21.4 | 24.2 | – | – | – |
| GAGAAGGUAGGAUAUACGAAUAAAAAGGGUAGAAUAAUAACACAUGAGGAUCACCCAUGUAGAAGGACCAAGAG [Mat - Exclusion 2 - Mod of my Tesla design - D20] (puzzle: Exclusion 2) | 45 | 25.1 | 26.5 | – | – | – |
| GAGAAGGUAGGAUAUACGAAUAAAGAGGGUAGGAAUAAGACACAUGAGGAUCACCCAUGUAGAAGGACCAAGAG [Mat - Exclusion 2 - Mod of my Tesla design - D50] (puzzle: Exclusion 2) | 37.1 | 20.3 | 21.4 | – | – | – |
| GAGACUGGAGGAUAUACGAACUGGUGUAUCUGGAAGGAUCGACUUGAGGAUCACCCAAGUAGAAGGCUAGUGAA [Esgeti] (Eterna round: R97, puzzle: Exclusion 2) | – | – | – | 395 | 40.5 | – |
| GAGAGAAUCUAGGAUAUGUCAAGAGAAGGAGAGAUAGAAGGAGAGACAUGAGGAUCACCCAUGUCUUCGUGUAG [Default title] (Eterna round: R97, puzzle: Exclusion 6) | – | – | – | 19.4 | 17.8 | – |
| GAGAGGUCAGGAUAUACGGAGAGAGGGAGUAGGUGAGGGUAACAUGAGGAUCACCCAUGUAGAAGGGACUAAGG [JR_Exclu2_Sub076] (puzzle: Exclusion 2) | 26.4 | 27.4 | 39.9 | – | – | – |
| GAGCAGCGAGGAUAUACAGACGGGUCCAGUACGUGUCUUGGACUUGAGGAUCACCCAAGUAGAAGGCGUCUCAG [salish99_ex2_r4_608] (Eterna round: R97, puzzle: Exclusion 2) | – | – | – | 86.8 | 44.3 | – |
| GAGCCGCGAGGAUAUACAGACGAGUCCAUUACGUGUCUCGGACUUGAGGAUCACCCAAGUAGAAGGCGUCUCAG [salish99_ex2_r4_629] (Eterna round: R97, puzzle: Exclusion 2) | – | – | – | 34.3 | 34.2 | – |
| GAGCUAUGAGGAUAUGCAUAUAUACGGAUUCGUGUAGUACUACAUGAGGAUCACCCAUGUAGAAGGCGUGGCAG [Mat - Exclusion 2 - Mod of JL - D77] (puzzle: Exclusion 2) | – | 12.1 | – | – | – | – |
| GAGCUAUGAGGAUAUGCAUAUAUACGGUUUCGUGUGGUACUACAUGAGGAUCACCCAUGUAGAAGGCGUGGCAG [Mat - Exclusion 2 - Mod of JL - D78] (puzzle: Exclusion 2) | – | 16.7 | – | – | – | – |
| GAGCUAUGAGGAUAUGCAUAUAUGCGGUUUCGUGUGGUACUACAUGAGGAUCACCCAUGUAGAAGGCGUGGCUG [JL-ex2-2.06 mat747 mod] (puzzle: Exclusion 2) | – | 14 | – | – | – | – |
| GAGCUGAACUCAGGAUAUUGCGAGUCUUGGGUGACAGCUCUGACAUGAGGAUCACCCAUGUACUCCGAGAAGGGAGGCCGGUAA [Zainve] (Eterna round: R96, puzzle: Exclusion NG 2) | – | – | – | 125 | 185 | 113 |
| GAGGAACAUGAGGAUCACCCAUGUAAGGAUAUGCAUAGCGAGGUAGUAGAAGGUGAAGGCAGAAGGUACACGGA [JR_Exclu1_Sub076] (puzzle: Exclusion 1) | 31.3 | 34.2 | 43.8 | – | – | – |
| GAGGAACAUGAGGAUCACCCAUGUAAGGAUAUGCGAGACUAAAGCGCGCAGGCUAAGAGCAGAAGGUGCAAGGA [Excls1-IIa] (puzzle: Exclusion 1) | 36 | 28.7 | 32.8 | – | – | – |
| GAGGAGACAGGAUAUACAUGAGGAUCACCCAUGUGAGGAGGAGGAGAGAGGAGAAGGAGUAGAAGGGUCAGAGA [JR_Exclu3_Sub024] (puzzle: Exclusion 3) | 45.1 | 33.7 | 73.8 | – | – | – |
| GAGGCAUGCCGAGGUCCACACAUGAGGAUCACCCAUGUAAUGACAGGCUUUUUACUCGUUUUAUCGCUAUCGCGUUC [Incebece] (puzzle: Sensor v3, turn-off variant 1) | 13.5 | 26.4 | 12.8 | – | – | – |
| GAGGGACAUGAGGAUCACCCAUGUGAGGAUAUGUAAGAGAGAGGAGAGAGGAUAAGAAACAGAAGGCGCGUGAG [JR_Exclu1_Sub089] (puzzle: Exclusion 1) | 30.1 | 55.7 | 43.2 | – | – | – |
| GAGGGACAUGAGGAUCACCCAUGUGAGGAUAUGUGAGAAGGAUUGGAGAGAAUAAGAAACAGAAGGCGCGGGAG [JR_Exclu1_Sub087] (puzzle: Exclusion 1) | 48.9 | 52.5 | 116 | – | – | – |
